# Test results: patent US20060223116
# T1: truncated GST-fusion T-bet protein, N-terminal fragment
# T1 sequence (Q9UL17 whole entry, species assumed, looked up): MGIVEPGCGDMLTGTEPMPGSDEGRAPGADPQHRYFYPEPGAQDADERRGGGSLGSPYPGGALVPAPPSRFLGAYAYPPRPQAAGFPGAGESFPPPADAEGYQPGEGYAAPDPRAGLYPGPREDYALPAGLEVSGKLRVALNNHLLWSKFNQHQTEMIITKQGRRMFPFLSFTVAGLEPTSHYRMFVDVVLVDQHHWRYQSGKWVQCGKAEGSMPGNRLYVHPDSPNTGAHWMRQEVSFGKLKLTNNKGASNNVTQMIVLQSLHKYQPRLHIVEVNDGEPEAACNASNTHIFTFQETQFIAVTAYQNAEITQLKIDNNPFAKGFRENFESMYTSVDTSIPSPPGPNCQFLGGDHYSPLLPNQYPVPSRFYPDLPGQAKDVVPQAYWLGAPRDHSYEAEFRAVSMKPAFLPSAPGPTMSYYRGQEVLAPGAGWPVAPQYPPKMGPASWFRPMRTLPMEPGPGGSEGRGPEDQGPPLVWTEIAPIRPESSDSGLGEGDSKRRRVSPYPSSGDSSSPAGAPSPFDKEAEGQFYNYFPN
# T2: truncated GST-fusion T-bet protein, C-terminal fragment
# T2 sequence (Q9UL17 whole entry, species assumed, looked up): T1 sequence (Q9UL17 whole entry, species assumed, looked up)
# B1: ITK-FLAG (full length IL-2 inducible T cell tyrosine kinase, FLAG-tagged) (enzyme, UniProt Q08881 1-620, looked up, species assumed)
# chain: MNNFILLEEQLIKKSQQKRRTSPSNFKVRFFVLTKASLAYFEDRHGKKRTLKGSIELSRIKCVEIVKSDISIPCHYKYPFQVVHDNYLLYVFAPDRESRQRWVLALKEETRNNNSLVPKYHPNFWMDGKWRCCSQLEKLATGCAQYDPTKNASKKPLPPTPEDNRRPLWEPEETVVIALYDYQTNDPQELALRRNEEYCLLDSSEIHWWRVQDRNGHEGYVPSSYLVEKSPNNLETYEWYNKSISRDKAEKLLLDTGKEGAFMVRDSRTAGTYTVSVFTKAVVSENNPCIKHYHIKETNDNPKRYYVAEKYVFDSIPLLINYHQHNGGGLVTRLRYPVCFGRQKAPVTAGLRYGKWVIDPSELTFVQEIGSGQFGLVHLGYWLNKDKVAIKTIREGAMSEEDFIEEAEVMMKLSHPKLVQLYGVCLEQAPICLVFEFMEHGCLSDYLRTQRGLFAAETLLGMCLDVCEGMAYLEEACVIHRDLAARNCLVGENQVIKVSDFGMTRFVLDDQYTSSTGTKFPVKWASPEVFSFSRYSSKSDVWSFGVLMWEVFSEGKIPYENRSNSEVVEDISTGFRLYKPRLASTHVYQIMNHCWKERPEDRPAFSRLLRQLAEIAESGL
# modifications: full-length FLAG tag
# Legend:
# [1] = system: T1, truncated GST-fusion T-bet protein, N-terminal fragment
# [2] = system: T2, truncated GST-fusion T-bet protein, C-terminal fragment
protein,measurement,setting,value
B1,"in vitro kinase assay (32P-ATP, autoradiography)",[1],"both the N and C terminal fragments but not the DNA binding domain, could be phosphorylated by the Tec kinases, ITK and RLK"
same,"in vitro kinase assay (32P-ATP, autoradiography)",[2],"both the N and C terminal fragments but not the DNA binding domain, could be phosphorylated by the Tec kinases, ITK and RLK"
